Here are results for nine molecules from US20170022281A1 (AbbVie / Abbott, published 2017).

Test [1] concerns the target T1, mouse PRLR on Baf3-mPRLR cells (mouse, UniProt Q08501 20-608).
T1 construct: whole, on cells
T1 sequence (looked up): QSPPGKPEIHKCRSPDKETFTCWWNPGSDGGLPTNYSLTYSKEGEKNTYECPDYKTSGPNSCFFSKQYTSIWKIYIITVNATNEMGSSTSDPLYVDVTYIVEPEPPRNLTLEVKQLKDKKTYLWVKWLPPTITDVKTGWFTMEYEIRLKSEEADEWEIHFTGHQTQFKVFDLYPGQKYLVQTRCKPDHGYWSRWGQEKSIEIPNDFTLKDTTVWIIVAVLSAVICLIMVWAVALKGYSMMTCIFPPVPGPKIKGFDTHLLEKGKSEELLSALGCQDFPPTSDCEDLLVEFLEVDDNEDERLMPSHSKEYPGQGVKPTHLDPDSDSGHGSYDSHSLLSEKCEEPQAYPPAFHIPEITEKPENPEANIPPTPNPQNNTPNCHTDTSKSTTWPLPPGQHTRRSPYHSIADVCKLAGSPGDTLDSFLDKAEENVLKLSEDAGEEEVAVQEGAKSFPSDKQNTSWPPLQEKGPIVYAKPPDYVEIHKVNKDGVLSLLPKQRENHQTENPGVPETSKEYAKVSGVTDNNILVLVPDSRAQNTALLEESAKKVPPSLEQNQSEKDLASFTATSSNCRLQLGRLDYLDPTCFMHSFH
Briefly: FACS Baf3-mPRLR 10 ug/mL. How it is done: Nb2-11 and Baf3-xPRLR cells were resuspended in FACS buffer (PBS+1% FBS) at 2 millions cells/mL. Cells were added to round bottom 96-well plate (100 uL/well) and treated with testing PRLR antibodies for 1 hr at 4 C. Cells were then washed with FACS buffer twice and incubated with 2nd antibody conjugated to ALEXA488 (Invitrogen) for 1 hr at 4 C. After two washes in FACS buffer, cells were resuspended in 1% formaldehyde in PBS. Cells were analyzed using LSRII flowcytometer.

Test [2] deals with T2, human PRLR (Biacore antigen) (human, UniProt P16471 25-234, limits assumed).
T2 construct: The construct injected over captured antibody is not described (a soluble form is likely); also called huPRLR
T2 sequence: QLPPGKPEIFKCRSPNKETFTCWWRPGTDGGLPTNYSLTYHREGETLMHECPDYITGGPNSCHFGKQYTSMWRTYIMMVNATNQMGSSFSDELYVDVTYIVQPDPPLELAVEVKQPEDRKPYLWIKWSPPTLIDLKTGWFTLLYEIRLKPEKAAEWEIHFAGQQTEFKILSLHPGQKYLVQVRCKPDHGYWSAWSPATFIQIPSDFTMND
Briefly: SPR Biacore. A general note: SPR reads the build-up and loss of mass on a sensor chip optically.

B1: Ab5 (antibody, V domains shown)
VH: QVQLQQPGAELVRPGTSVKLSCKASGYTFTSFWMHWVKQRPGQGLEWIGVIDPSDTYTNYNQKFKGKATLTVDTSSSTAYMQLSSLTSEDSAVYYCARGDYSNWFTYWGQGTLVTVSA
VL: DVVMTQTPLSLPVSLGDQASISCRSSQRLVHSNGNTYLHWYLQKPGQSPKLLIYKVSNRFSGVPDRFSGSGSGTDFTLKISRVEAEDLGVYFCSQSTHVPWTFGGGTKLEIK
notes: murine monoclonal, isotype G2a; also called murine Ab5
As for B1, in test [1], the “FACS GeoMean-neg” value amounted to 166.

B2: Ab7 (antibody, V domains shown)
VH: QVQLQQPGAELVMPGTSVKLSCKASGYTFTSYWIHWVKQRPGQGLEWIGEIDPSDSYTNYNQKFKGKATLTVDRSSSTAYMQLSSLTSEDSAVYYCGRSFFTNWFAYWGQGTLVTVSA
VL: DVVMTQTPLSLPVSLGDQASISCRSSQSLVHSNGNTYLHWYLQKPGQSPKLLIYKVSNRFSGVPDRFSGSGSGTDFTLKINRVEAEDLGVYFCSQSTHVPFTFGSGTKLEIK
notes: murine monoclonal, isotype G1; also called murine Ab7
With B2, in test [1], the “FACS GeoMean-neg” value was found to be 27.

B3: Ab11 (antibody, V domains shown)
VH: EVKLVESGGGLVQPGGSLKLSCAASGFTFSDYYMFWVRQTPEKSLEWVAYISNGGGSTYYPDTVKGRFTISRDNAKNTLYLQMSRLKSEDTAMYYCSRQLFYYGSRGAMGYWGQGTSVTVSS
VL: DVLMTQTPLSLPVSLGDQASISCRSSQSIVHSNGNTYLEWYLQKPGQSPKLLIYKVSNRFSGVPDRFSGSGSGTDFTLKISRVEAEDLGVYYCFQGSHVPFTFGSGTKLEIK
notes: murine monoclonal, isotype G1; also called murine Ab11
With B3, the “FACS GeoMean-neg” value in test [1] came out at 25.

B4: Ab13 (antibody, V domains shown)
VH: QVQLQQPGAELVRPGTSVKLSCKASGYTFTSFWMHWVKQRPGQGLEWIGVIDPSDSHTNYNQKFKGKATLTVNTSSSTAYMHLSSLTSEDSAVYYCARGDYSNWFTYWGQGTLVTVSA
VL: DVVMTQTPFSLPVSLGDQASISCRSSQSLVHSNGNTYLHWYLQKPGQSPKLLIYKVSNRFSGVPDRFSGSGSGTDFTLKISRVEAEDLELYFCSQSTHVPWTFGGGTKLEIK
notes: murine monoclonal, isotype G2a; also called murine Ab13
B4: in test [1], the “FACS GeoMean-neg” value turned out to be 143.

B5: Ab6 (antibody, V domains shown)
VH: QVQLQQPGAELVMPGSSVKLSCKASGYTFTTYWMHWVKQRPGQGLEWIGEIDPSDSYSNYNQKFKDKATLTVDKSSSTAYMQLSSLTSEDSAVYYCARNGGLGPAWFSYWGQGTLVTVSA
VL: DIVMTQSQKFMSTTVGDRVSITCKASQYVGTAVAWYQQKPGQSPKLLIYSASNRYTGVPDRFTDSGSGTDFTLTISNLQSEDLADYFCQQYSSYPWTFGGGTKLEIK
notes: murine monoclonal, isotype G1; also called murine Ab6
As for B5, the “FACS GeoMean-neg” value in test [1] is 0.

B6: Ab10 (antibody, V domains shown)
VH: EVQLHQSGPELVKPGASVKISCKASGYTFTDYNMHWMKQSHGKSLEWIGYFYPYNGGTGYNQEFKNKATLTVDISSSTAYMELRRLTSEDSAVYYCARGGWGIYYAMDYWGQGTSVTVSS
VL: DIQMTQSPASLSASVGETVTITCRASENIYSYLTWYQQKQGKSPQLLVYNAKTLAEGVPSRFSGSGSGTQFSLKINSLQPEDFGSYHCQHHSVTPLTFGAGTKLELK
notes: murine monoclonal, isotype G2a; also called murine Ab10
Consider B6, for which, in test [1], the “FACS GeoMean-neg” value turned out to be 49.

B7: Ab39 (antibody, human IgG1, kappa, V domains shown)
VH: EVQLVQSGAEVKKPGSSVKVSCKASGYTFTSYWIHWVRQAPGQGLEWIGEIDPSDSYTNYNQKFKGRATLTVDKSSSTAYMELSSLRSEDTAVYYCARSFFTNWFAYWGQGTLVTVSS
VL: DVVMTQTPLSLSVTPGQPASISCRSSQSLVHSNGNTYLHWYLQKPGQSPQLLIYKVSNRFSGVPDRFSGSGSGTDFTLKISRVEAEDVGVYFCSQSTHVPFTFGGGTKVEIKR
notes: humanized from Ab7; G1; also called Ab4 HC.1a and Ab4 LC.1a
As to B7, the “fold decrease in affinity against chAb7” value in test [2] was about 22 fold.

B8: Ab12 (antibody, V domains shown)
VH: DVQLQESGPGLVKPSQSLSLTCTVTGYSITSDYAWNWIRQFPGNKLEWMGYIGYSGRTSFNPSLKSRISITRDTSKNQFFLQLNSVTTEDTATYYCARGGFAMDYWGQGTSVTVSS
VL: QIVLTQSPGIMSASPGEKVTMTCSASSSVTYMYWYQQKPRSSPKPWIYLTSNLASGVPARFSGSGSGTSYSLTISSMEAEDGATYYCQQWSSTPPLTFGGGTKLELN
notes: murine monoclonal, isotype G2a; reported as PRLR agonist; also called murine Ab12
Turning to B8, the “FACS GeoMean-neg” value in test [1] was 90.

B9: LFA102 (antibody, human IgG1, kappa, V domains shown)
VH: EVQLVESGGGLVQPGGSLRLSCAVSGFTFSSYGMSWVRQAPGKRLEWVATVSSGGTYTYYPDSVKGRFTISRDNSKNTLYLQMNSLRAEDTAMYYCARHRGNYYATYYYAMDYWGQGTLVTVSS
VL: DIVLTQSPDSLAVSLGERATINCKASKSVSTSGYTYMHWYQQKPGQPPKLLIYLASNRESGVPDRFSGSGSGTDFTLTISPVQAEDVATYYCQHSGELPPSFGQGTKLEIKR
notes: humanized IgG1 kappa comparator (WO 2008022295)
In the case of B9, in test [1], the “FACS GeoMean-neg” value is 4.
